The source of these data is doi:10.1101/2020.01.17.910273, “Ribosome association primes the stringent factor Rel for recruitment of deacylated tRNA to ribosomal A-site”.

Some targets named below: Rel (Bacillus subtilis, UniProt O54408 1-734); Rel TGS-Helical (Bacillus subtilis, UniProt O54408 374-583); Rel NTD (Bacillus subtilis, UniProt O54408 1-373).
Holding throughout (assay): EMSA; EMSA: HEPES:Polymix buffer, 5 mM Mg2+, 0.1 uM tRNA or mRNA(MVF), with or without 1 uM mRNA(MVF) competitor, 5 min at 37 C; pH not in material
Conditions in all cases: protein: recombinant; single strand

Sequence of Rel NTD (O54408 1-373): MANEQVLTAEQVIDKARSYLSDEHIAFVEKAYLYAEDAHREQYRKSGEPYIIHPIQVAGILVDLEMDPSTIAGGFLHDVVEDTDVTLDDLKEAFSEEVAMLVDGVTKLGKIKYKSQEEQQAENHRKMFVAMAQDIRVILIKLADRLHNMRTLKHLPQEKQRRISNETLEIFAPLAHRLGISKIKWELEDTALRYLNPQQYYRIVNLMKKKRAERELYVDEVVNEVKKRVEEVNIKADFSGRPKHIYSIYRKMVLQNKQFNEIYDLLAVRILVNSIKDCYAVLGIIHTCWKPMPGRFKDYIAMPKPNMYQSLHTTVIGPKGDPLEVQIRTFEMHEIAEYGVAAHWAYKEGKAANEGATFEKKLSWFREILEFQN
Sequence of Rel TGS-Helical (O54408 374-583): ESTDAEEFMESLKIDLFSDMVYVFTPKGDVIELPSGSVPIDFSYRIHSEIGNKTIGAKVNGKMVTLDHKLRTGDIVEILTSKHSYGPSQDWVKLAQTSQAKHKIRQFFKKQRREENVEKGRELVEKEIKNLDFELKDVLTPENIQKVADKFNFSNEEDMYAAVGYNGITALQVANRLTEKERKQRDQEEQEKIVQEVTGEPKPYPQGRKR
Sequence of Rel (O54408 whole entry): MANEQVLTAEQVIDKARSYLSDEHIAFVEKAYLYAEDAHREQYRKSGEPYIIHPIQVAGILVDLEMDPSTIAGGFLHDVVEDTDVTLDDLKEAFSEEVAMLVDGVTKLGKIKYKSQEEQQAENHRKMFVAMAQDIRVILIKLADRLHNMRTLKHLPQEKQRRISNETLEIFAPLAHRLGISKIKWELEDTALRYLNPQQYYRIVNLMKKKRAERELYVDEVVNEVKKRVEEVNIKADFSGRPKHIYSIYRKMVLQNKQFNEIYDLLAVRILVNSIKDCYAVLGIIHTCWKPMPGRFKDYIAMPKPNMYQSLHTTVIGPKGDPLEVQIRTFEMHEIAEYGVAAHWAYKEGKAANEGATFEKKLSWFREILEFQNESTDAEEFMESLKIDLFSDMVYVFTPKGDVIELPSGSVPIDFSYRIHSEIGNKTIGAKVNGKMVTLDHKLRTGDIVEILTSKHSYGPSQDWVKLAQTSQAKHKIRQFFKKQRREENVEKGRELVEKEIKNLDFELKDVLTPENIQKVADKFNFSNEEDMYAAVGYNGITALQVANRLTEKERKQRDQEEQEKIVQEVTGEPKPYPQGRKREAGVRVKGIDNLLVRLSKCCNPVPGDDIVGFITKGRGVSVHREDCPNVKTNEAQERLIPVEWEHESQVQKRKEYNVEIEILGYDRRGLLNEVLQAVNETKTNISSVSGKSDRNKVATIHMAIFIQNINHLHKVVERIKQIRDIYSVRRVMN

For the molecule GGCAAGGAGGAGAUAAGAAUGGUUUUCUAAUA (ssRNA) [mRNA(MVF)], the “apparent K (half saturation)” value was 490 ± 10 nM with Rel and 680 ± 30 nM with Rel NTD. The binding result with Rel TGS-Helical is “no binding”.
